In paper PMC5547543 (2017):
Read-outs that look alike come from different tables or passages of the source.

Key:
Experiment in all cases: SPR
Hck (2PA-YEEI) [1] = target: T1, Hck (2PA-YEEI) (UniProt P08631 1-526, C-terminal tail tyrosine of the YEEI motif constitutively phosphorylated; autophosphorylated at the activation loop tyrosine (Tyr-411 of Hck))
Hck (2PA-YEEI) [2] = target: T1, Hck (2PA-YEEI); remark: listed apart in the source
Hck (2PA-YEEI) [3] = target: T1, Hck (2PA-YEEI); remark: listed apart in the source

T1 sequence (P08631 other isoform, or with tags, fused parts or gaps): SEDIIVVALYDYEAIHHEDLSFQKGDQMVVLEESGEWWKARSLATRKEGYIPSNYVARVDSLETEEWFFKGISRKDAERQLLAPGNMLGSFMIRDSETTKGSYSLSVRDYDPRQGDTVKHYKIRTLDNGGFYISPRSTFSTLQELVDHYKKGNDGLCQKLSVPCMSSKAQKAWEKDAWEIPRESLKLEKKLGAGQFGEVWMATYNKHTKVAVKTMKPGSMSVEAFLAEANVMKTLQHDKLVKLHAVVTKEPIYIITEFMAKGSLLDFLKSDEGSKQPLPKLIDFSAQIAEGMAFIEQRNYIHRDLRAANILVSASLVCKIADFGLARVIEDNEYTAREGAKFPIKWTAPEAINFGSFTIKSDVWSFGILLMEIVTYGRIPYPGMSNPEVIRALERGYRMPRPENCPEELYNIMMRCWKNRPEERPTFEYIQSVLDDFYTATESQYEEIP

| Kd (Hck (2PA-YEEI) [1]) | koff (Hck (2PA-YEEI) [2]) | Kd (Hck (2PA-YEEI) [3]) | Binder |
| --- | --- | --- | --- |
| 13 nM | 0.000195 s⁻¹ | – | Chk (R278A) (enzyme) MPTRRWAPGTQCITKCEHTRPKPGELAFRKGDVVTILEACENKSWYRVKHHTSGQEGLLAAGALREREALSADPKLSLMPWFHGKISGQEAVQQLQPPEDGLFLVRESARHPGDYVLCVSFGRDVIHYRVLHRDGHLTIDEAVFFCNLMDMVEHYSKDKGAICTKLVRPKRKHGTKSAEEELARAGWLLNLQHLTLGAQIGEGEFGAVLQGEYLGQKVAVKNIKCDVTAQAFLDETAVMTKMQHENLVRLLGVILHQGLYIVMEHVSKGNLVNFLRTAGRALVNTAQLLQFSLHVAEGMEYLESKKLVHRDLAARNILVSEDLVAKVSDFGLAKAERKGLDSSRLPVKWTAPEALKHGKFTSKSDVWSFGVLLWEVFSYGRAPYPKMSLKEVSEAVEKGYRMEPPEGCPGPVHVLMSSCWEAEPARRPPFRKLAEKLARELRSAGAPASVSGQDADGSTSPRSQEP |
| 56 nM | 0.000208 s⁻¹ | – | Chk (R276A) (enzyme) MPTRRWAPGTQCITKCEHTRPKPGELAFRKGDVVTILEACENKSWYRVKHHTSGQEGLLAAGALREREALSADPKLSLMPWFHGKISGQEAVQQLQPPEDGLFLVRESARHPGDYVLCVSFGRDVIHYRVLHRDGHLTIDEAVFFCNLMDMVEHYSKDKGAICTKLVRPKRKHGTKSAEEELARAGWLLNLQHLTLGAQIGEGEFGAVLQGEYLGQKVAVKNIKCDVTAQAFLDETAVMTKMQHENLVRLLGVILHQGLYIVMEHVSKGNLVNFLATRGRALVNTAQLLQFSLHVAEGMEYLESKKLVHRDLAARNILVSEDLVAKVSDFGLAKAERKGLDSSRLPVKWTAPEALKHGKFTSKSDVWSFGVLLWEVFSYGRAPYPKMSLKEVSEAVEKGYRMEPPEGCPGPVHVLMSSCWEAEPARRPPFRKLAEKLARELRSAGAPASVSGQDADGSTSPRSQEP |
| – | – | 1270 nM | Csk-Chk chimera (enzyme) MSAIQAAWPSGTECIAKYNFHGTAEQDLPFCKGDVLTIVAVTKDPNWYKAKNKVGREGIIPANYVQKREGVKAGTKLSLMPWFHGKITREQAERLLYPPETGLFLVRESTNYPGDYTLCVSCDGKVEHYRIMYHASKLSIDEEVYFENLMQLVEHYTSDADGLCTRLIKPKVMEGTVAAQDLTLGAQIGEGEFGAVLQGEYLGQKVAVKNIKCDVTAQAFLDETAVMTKMQHENLVRLLGVILHQGLYIVMEHVSKGNLVNFLRTRGRALVNTAQLLQFSLHVAEGMEYLESKKLVHRDLAARNILVSEDLVAKVSDFGLAKAERKGLDSSRLPVKWTAPEALKHGKFTSKSDVWSFGVLLWEVFSYGRAPYPKMSLKEVSEAVEKGYRMEPPEGCPGPVHVLMSSCWEAEPARRPPFRKLAEKLAREL |
| – | 0.00036 s⁻¹ | – | Chk (K387A) (enzyme) MPTQRWAPGTQCMTKCENSRPKPGELAFRKGDMVTILEACEDKSWYRAKHHSSGQEGLLAAAALRQREALSTDPKLSLMPWFHGKISGQEAIQQLQPPEDGLFLVRESARHPGDYVLCVSFGRDVIHYRVLHRDGHLTIDEAVCFCNLMDMVEHYTRDKGAICTKLVKPKRKQGAKSAEEELAKAGWLLDLQHLTLGAQIGEGEFGAVLQGEYLGQKVAVKNIKCDVTAQAFLDETAVMTKLQHRNLVRLLGVILHHGLYIVMEHVSKGNLVNFLRTRGRALVSTSQLLQFALHVAEGMEYLESKKLVHRDLAARNILVSEDLVAKVSDFGLAKAELRKGLDSSRLPVKWTAPEALKNGRFSSKSDVWSFGVLLWEVFSYGRAPYPAMSLKEVSEAVEKGYRMEPPDSCPGPVHTLMGSCWEAEPSRRPPFRKIVEKLGRELRSVGVAAPAGGQEAEGSAPTRSQDPGSGSHHHHHH |
| 35 nM | 0.00024 s⁻¹ | – | Chk (R280A) (enzyme) MPTQRWAPGTQCMTKCENSRPKPGELAFRKGDMVTILEACEDKSWYRAKHHSSGQEGLLAAAALRQREALSTDPKLSLMPWFHGKISGQEAIQQLQPPEDGLFLVRESARHPGDYVLCVSFGRDVIHYRVLHRDGHLTIDEAVCFCNLMDMVEHYTRDKGAICTKLVKPKRKQGAKSAEEELAKAGWLLDLQHLTLGAQIGEGEFGAVLQGEYLGQKVAVKNIKCDVTAQAFLDETAVMTKLQHRNLVRLLGVILHHGLYIVMEHVSKGNLVNFLRTRGAALVSTSQLLQFALHVAEGMEYLESKKLVHRDLAARNILVSEDLVAKVSDFGLAKAELRKGLDSSRLPVKWTAPEALKNGRFSSKSDVWSFGVLLWEVFSYGRAPYPKMSLKEVSEAVEKGYRMEPPDSCPGPVHTLMGSCWEAEPSRRPPFRKIVEKLGRELRSVGVAAPAGGQEAEGSAPTRSQDPGSGSHHHHHH |
| – | 0.000322 s⁻¹ | – | Chk (R382A) (enzyme) MPTQRWAPGTQCMTKCENSRPKPGELAFRKGDMVTILEACEDKSWYRAKHHSSGQEGLLAAAALRQREALSTDPKLSLMPWFHGKISGQEAIQQLQPPEDGLFLVRESARHPGDYVLCVSFGRDVIHYRVLHRDGHLTIDEAVCFCNLMDMVEHYTRDKGAICTKLVKPKRKQGAKSAEEELAKAGWLLDLQHLTLGAQIGEGEFGAVLQGEYLGQKVAVKNIKCDVTAQAFLDETAVMTKLQHRNLVRLLGVILHHGLYIVMEHVSKGNLVNFLRTRGRALVSTSQLLQFALHVAEGMEYLESKKLVHRDLAARNILVSEDLVAKVSDFGLAKAELRKGLDSSRLPVKWTAPEALKNGRFSSKSDVWSFGVLLWEVFSYGAAPYPKMSLKEVSEAVEKGYRMEPPDSCPGPVHTLMGSCWEAEPSRRPPFRKIVEKLGRELRSVGVAAPAGGQEAEGSAPTRSQDPGSGSHHHHHH |
